In article PMC6879718, “Mycobacterial OtsA Structures Unveil Substrate Preference Mechanism and Allosteric Regulation by 2-Oxoglutarate and 2-Phosphoglycerate” (mBio, 2019):

Columns and labels:
[1] = tested on: Nc1nc2c(ncn2[C@@H]2O[C@H](COP(=O)(O)OP(=O)(O)O[C@H]3O[C@H](CO)[C@@H](O)[C@H](O)[C@H]3O)[C@@H](O)[C@H]2O)c(=O)[nH]1; assay: OtsA kinetic parameters, continuous colorimetric coupled assay (L319I); assay type: biochemical, Mycobacterium thermoresistibile; details: other: L319I; G6P fixed at 10 mM for NDP-glucose, ADP-glucose […] for G6P; pH 7.5; 37.0 °C
[2] = tested on: Nc1ncnc2c1ncn2[C@@H]1O[C@H](COP(=O)(O)OP(=O)(O)O[C@H]2O[C@H](CO)[C@@H](O)[C@H](O)[C@H]2O)[C@@H](O)[C@H]1O; assay: as above; assay type: biochemical, Mycobacterium thermoresistibile; details: other: L319I; G6P fixed at 10 mM for NDP-glucose, ADP-glucose […] for G6P; pH 7.5; 37.0 °C
[3] = tested on: O=C[C@H](O)[C@@H](O)[C@H](O)[C@H](O)COP(=O)(O)O; assay: as above; assay type: biochemical, Mycobacterium thermoresistibile; details: other: L319I; G6P fixed at 10 mM for NDP-glucose, ADP-glucose […] for G6P; pH 7.5; 37.0 °C
[4] = tested on: Nc1nc2c(ncn2[C@@H]2O[C@H](COP(=O)(O)OP(=O)(O)O[C@H]3O[C@H](CO)[C@@H](O)[C@H](O)[C@H]3O)[C@@H](O)[C@H]2O)c(=O)[nH]1; assay: OtsA kinetic parameters, continuous colorimetric coupled assay (L319I, E367L); assay type: biochemical, Mycobacterium thermoresistibile; details: other: L319I, G6P fixed at 10 mM for NDP-glucose, ADP-glucose […] for G6P, pH 7.5, 37.0 °C
[5] = tested on: Nc1ncnc2c1ncn2[C@@H]1O[C@H](COP(=O)(O)OP(=O)(O)O[C@H]2O[C@H](CO)[C@@H](O)[C@H](O)[C@H]2O)[C@@H](O)[C@H]1O; assay: as above; assay type: biochemical, Mycobacterium thermoresistibile; details: other: L319I, G6P fixed at 10 mM for NDP-glucose, ADP-glucose […] for G6P, pH 7.5, 37.0 °C
[6] = tested on: O=C[C@H](O)[C@@H](O)[C@H](O)[C@H](O)COP(=O)(O)O; assay: as above; assay type: biochemical, Mycobacterium thermoresistibile; details: other: L319I, G6P fixed at 10 mM for NDP-glucose, ADP-glucose […] for G6P, pH 7.5, 37.0 °C
[7] = tested on: Nc1nc2c(ncn2[C@@H]2O[C@H](COP(=O)(O)OP(=O)(O)O[C@H]3O[C@H](CO)[C@@H](O)[C@H](O)[C@H]3O)[C@@H](O)[C@H]2O)c(=O)[nH]1; assay: OtsA kinetic parameters, continuous colorimetric coupled assay (L319I, V363F, E367L); assay type: biochemical, Mycobacterium thermoresistibile; details: other: L319I, G6P fixed at 10 mM for NDP-glucose, ADP-glucose […] for G6P, pH 7.5, 37.0 °C
[8] = tested on: Nc1ncnc2c1ncn2[C@@H]1O[C@H](COP(=O)(O)OP(=O)(O)O[C@H]2O[C@H](CO)[C@@H](O)[C@H](O)[C@H]2O)[C@@H](O)[C@H]1O; assay: as above; assay type: biochemical, Mycobacterium thermoresistibile; details: other: L319I, G6P fixed at 10 mM for NDP-glucose, ADP-glucose […] for G6P, pH 7.5, 37.0 °C
[9] = tested on: O=C[C@H](O)[C@@H](O)[C@H](O)[C@H](O)COP(=O)(O)O; assay: as above; assay type: biochemical, Mycobacterium thermoresistibile; details: other: L319I, G6P fixed at 10 mM for NDP-glucose, ADP-glucose […] for G6P, pH 7.5, 37.0 °C
[10] = tested on: Nc1ncnc2c1ncn2[C@@H]1O[C@H](COP(=O)(O)OP(=O)(O)O[C@H]2O[C@H](CO)[C@@H](O)[C@H](O)[C@H]2O)[C@@H](O)[C@H]1O; assay: OtsA kinetic parameters, continuous colorimetric coupled assay (R213E); assay type: biochemical, Mycobacterium thermoresistibile; details: other: R213E; G6P fixed at 10 mM for NDP-glucose, ADP-glucose […] for G6P; pH 7.5; 37.0 °C
Experimental: (§1) Formation of T6P was assessed by a continuous colorimetric assay that followed the release of NDP by measuring the oxidation of NADH at 340 nm, in the presence of pyruvate kinase and lactate dehydrogenase. All reagents used were obtained from Sigma-Aldrich. The enzymatic reactions (200-μl reaction mixture) were performed at 37°C, and the reaction mixtures contained 50 mM Tris (pH 7.5), 200 mM NaCl, 10 mM MgCl2, 50 mM KCl, 0.3 mM NADH, 2.5 mM phosphoenolpyruvate (PEP), 10 units of pyruvate kinase-lactate dehydrogenase, 0.1 μM enzyme, and various concentrations of G6P and NDP-glucose to determine kinetic parameters.

[11] = tested on: O=C[C@H](O)[C@@H](O)[C@H](O)[C@H](O)COP(=O)(O)O; assay: as above; assay type: biochemical, Mycobacterium thermoresistibile; details: other: R213E; G6P fixed at 10 mM for NDP-glucose, ADP-glucose […] for G6P; pH 7.5; 37.0 °C
Experimental: as §1

[12] = tested on: Nc1ncnc2c1ncn2[C@@H]1O[C@H](COP(=O)(O)OP(=O)(O)O[C@H]2O[C@H](CO)[C@@H](O)[C@H](O)[C@H]2O)[C@@H](O)[C@H]1O; assay: OtsA kinetic parameters, continuous colorimetric coupled assay (R384E); assay type: biochemical, Mycobacterium thermoresistibile; details: other: R384E; G6P fixed at 10 mM for NDP-glucose, ADP-glucose […] for G6P; pH 7.5; 37.0 °C
Experimental: as §1

[13] = tested on: O=C[C@H](O)[C@@H](O)[C@H](O)[C@H](O)COP(=O)(O)O; assay: as above; assay type: biochemical, Mycobacterium thermoresistibile; details: other: R384E; G6P fixed at 10 mM for NDP-glucose, ADP-glucose […] for G6P; pH 7.5; 37.0 °C
Experimental: as §1

[14] = tested on: Nc1nc2c(ncn2[C@@H]2O[C@H](COP(=O)(O)OP(=O)(O)O[C@H]3O[C@H](CO)[C@@H](O)[C@H](O)[C@H]3O)[C@@H](O)[C@H]2O)c(=O)[nH]1; assay: OtsA kinetic parameters, continuous colorimetric coupled assay (V363F); assay type: biochemical, Mycobacterium thermoresistibile; details: other: V363F; G6P fixed at 10 mM for NDP-glucose, ADP-glucose […] for G6P; pH 7.5; 37.0 °C
[15] = tested on: Nc1ncnc2c1ncn2[C@@H]1O[C@H](COP(=O)(O)OP(=O)(O)O[C@H]2O[C@H](CO)[C@@H](O)[C@H](O)[C@H]2O)[C@@H](O)[C@H]1O; assay: as above; assay type: biochemical, Mycobacterium thermoresistibile; details: other: V363F; G6P fixed at 10 mM for NDP-glucose, ADP-glucose […] for G6P; pH 7.5; 37.0 °C
[16] = tested on: O=C[C@H](O)[C@@H](O)[C@H](O)[C@H](O)COP(=O)(O)O; assay: as above; assay type: biochemical, Mycobacterium thermoresistibile; details: other: V363F; G6P fixed at 10 mM for NDP-glucose, ADP-glucose […] for G6P; pH 7.5; 37.0 °C
[17] = target: Mycobacterium thermoresistibile OtsA (Mycobacterium thermoresistibile (DSM 44167)); assay: not stated; in solution; the paper does not tell by which method the tetramer was seen
[18] = target: Mycobacterium thermoresistibile OtsA (Mycobacterium thermoresistibile (DSM 44167)); assay: crystal structure; apo form in space group I4(1)22, ADP-G6P ternary complex in P6(2)22, one protomer per asymmetric unit each; sitting-drop vapor diffusion at 18°C

M. thermoresistibile OtsA L319I (Mycolicibacterium thermoresistibile ATCC 19527; L319I)
Km [1]: 350 ± 40 µM | kcat [1]: 3.1 ± 0.1 s⁻¹ | kcat/Km [1]: 8900 ± 1400 M⁻¹ s⁻¹ | Km [2]: 710 ± 180 µM | kcat [2]: 8.4 ± 0.7 s⁻¹ | kcat/Km [2]: 12000 ± 2000 M⁻¹ s⁻¹ | Km [3]: 3300 ± 200 µM | kcat [3]: 6.4 ± 0.2 s⁻¹ | kcat/Km [3]: 1900 ± 200 M⁻¹ s⁻¹

M. thermoresistibile OtsA L319I, E367L (Mycolicibacterium thermoresistibile ATCC 19527; E367L/L319I)
Km [4]: 700 ± 50 µM | kcat [4]: 9.2 ± 0.4 s⁻¹ | kcat/Km [4]: 13000 ± 2000 M⁻¹ s⁻¹ | Km [5]: 630 ± 40 µM | kcat [5]: 14 ± 1 s⁻¹ | kcat/Km [5]: 22000 ± 3000 M⁻¹ s⁻¹ | Km [6]: 3700 ± 200 µM | kcat [6]: 21 ± 1 s⁻¹ | kcat/Km [6]: 5700 ± 500 M⁻¹ s⁻¹

M. thermoresistibile OtsA L319I, V363F, E367L (Mycolicibacterium thermoresistibile ATCC 19527; E367L/L319I/V363F)
Km [7]: 900 ± 60 µM | kcat [7]: 16 ± 1 s⁻¹ | kcat/Km [7]: 18000 ± 2000 M⁻¹ s⁻¹ | Km [8]: 1300 ± 100 µM | kcat [8]: 19 ± 1 s⁻¹ | kcat/Km [8]: 15000 ± 2000 M⁻¹ s⁻¹ | Km [9]: 3200 ± 200 µM | kcat [9]: 17 ± 1 s⁻¹ | kcat/Km [9]: 5300 ± 600 M⁻¹ s⁻¹

M. thermoresistibile OtsA R213E (Mycolicibacterium thermoresistibile ATCC 19527; R213E)
Km [10]: 310 ± 10 µM | kcat [10]: 56 ± 2 s⁻¹ | kcat/Km [10]: 180000 ± 13000 M⁻¹ s⁻¹ | Km [11]: 3300 ± 300 µM | kcat [11]: 33 ± 2 s⁻¹ | kcat/Km [11]: 10000 ± 1000 M⁻¹ s⁻¹

M. thermoresistibile OtsA R384E (Mycolicibacterium thermoresistibile ATCC 19527; R384E)
Km [12]: 1900 ± 200 µM | kcat [12]: 3.2 ± 0.1 s⁻¹ | kcat/Km [12]: 1700 ± 200 M⁻¹ s⁻¹ | Km [13]: 2900 ± 200 µM | kcat [13]: 2.1 ± 0.2 s⁻¹ | kcat/Km [13]: 770 ± 50 M⁻¹ s⁻¹

M. thermoresistibile OtsA V363F (Mycolicibacterium thermoresistibile ATCC 19527; V363F)
Km [14]: 740 ± 80 µM | kcat [14]: 14 ± 1 s⁻¹ | kcat/Km [14]: 19000 ± 3000 M⁻¹ s⁻¹ | Km [15]: 600 ± 30 µM | kcat [15]: 11 ± 1 s⁻¹ | kcat/Km [15]: 18000 ± 2000 M⁻¹ s⁻¹ | Km [16]: 3100 ± 200 µM | kcat [16]: 19 ± 1 s⁻¹ | kcat/Km [16]: 6100 ± 700 M⁻¹ s⁻¹

Mycobacterium thermoresistibile OtsA (enzyme)
stoichiometry N [17]: 4 | stoichiometry N [18]: 4
